The source of these data is patent US20260034234A1 (AGENSYS, published 2026).

Assay [1] concerns the target T1, purified recombinant 191P4D12 (ECD amino acids 1-348) (human, UniProt Q96NY8 32-348).
T1 construct: Range as printed
T1 sequence: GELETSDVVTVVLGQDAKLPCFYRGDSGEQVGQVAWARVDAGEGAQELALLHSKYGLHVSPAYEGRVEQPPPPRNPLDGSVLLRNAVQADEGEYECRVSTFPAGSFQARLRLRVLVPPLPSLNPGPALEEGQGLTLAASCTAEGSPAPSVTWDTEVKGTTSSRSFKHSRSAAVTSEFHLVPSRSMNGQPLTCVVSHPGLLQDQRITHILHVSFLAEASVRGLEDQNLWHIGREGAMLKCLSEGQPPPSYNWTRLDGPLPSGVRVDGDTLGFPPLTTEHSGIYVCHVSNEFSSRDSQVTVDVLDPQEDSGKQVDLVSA
Briefly: SPR (Biacore), ADC captured by anti-human Fc, 191P4D12 ECD as analyte. How it is done:
The affinity of Ha22-2(2,4)6.1 MAb and Ha22-2(2,4)6.1vcMMAE to purified recombinant 191P4D12 (ECD amino acids 1-348) was performed by Surface Plasmon Resonance (SPR) (BIAcore). Briefly, goat-anti-human Fcγ polyclonal Abs (Jackson Immuno Research Labs, Inc.) were covalently immobilized on the surface of a CM5 sensor chip (Biacore). Purified Ha22-2(2,4)6.1 MAb or Ha22-2(2,4)6.1vcMMAE were then captured on the surface of said chip. On average, approximately 300 RUs of test Ha22-2(2,4)6.1 MAb or Ha22-2(2,4)6.1vcMMAE was captured in every cycle. Subsequently, a series of five (5) to six (6) dilutions of recombinant 191P4D12 (ECD amino acids 1-348) ranging from 1 nM to 100 nM was injected over such surface to generate binding curves (sensograms) that were processed and globally fit to a 1:1 interaction model using BIAevaluation 3.2 and CLAMP software (Myszka and Morton, 1998) (FIG. 22). Table V summarizes association and dissociation rate constants as well as affinities of Ha22-2(2,4)6.1 MAb and Ha22-2(2,4)6.1 vcMMAE to recombinant 191P4D12 (ECD amino acids 1-348).
For orientation: SPR reads the build-up and loss of mass on a sensor chip optically.

Assay [2] has as its target T2, Rat 191P4D12 (on PC3 cells) (rat, UniProt D3ZET1 31-509).
T2 construct: whole, on cells; also called PC3-rat-191P4D12; Rat ortholog
T2 sequence: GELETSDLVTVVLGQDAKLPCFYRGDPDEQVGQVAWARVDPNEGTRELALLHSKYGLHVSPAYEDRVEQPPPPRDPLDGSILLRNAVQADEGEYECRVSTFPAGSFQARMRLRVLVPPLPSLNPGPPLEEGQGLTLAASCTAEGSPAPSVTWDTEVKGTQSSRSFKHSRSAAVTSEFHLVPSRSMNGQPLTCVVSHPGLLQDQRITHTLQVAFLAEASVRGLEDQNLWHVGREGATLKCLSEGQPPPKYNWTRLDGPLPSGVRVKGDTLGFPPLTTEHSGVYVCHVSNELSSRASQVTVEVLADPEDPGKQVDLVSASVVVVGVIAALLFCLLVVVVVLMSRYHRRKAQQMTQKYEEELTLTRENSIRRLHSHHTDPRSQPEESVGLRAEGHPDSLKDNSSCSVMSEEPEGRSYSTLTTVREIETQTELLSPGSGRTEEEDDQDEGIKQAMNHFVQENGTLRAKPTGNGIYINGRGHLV
Briefly: FACS saturation binding on PC3-rat-191P4D12 cells. Here is the method: (§1) Ha22-2(2,4)6.1vcMMAE was tested for its binding affinity to 191P4D12 expressed on the surface of PC3-human-191P4D12, PC3-Cynomolgus-191P4D12, and PC3-rat-191P4D12 cells respectively. Briefly, eleven (11) dilutions of Ha22-2(2,4)6.1vcMMAE were incubated with each of the cell types (50,000 cells per well) overnight at 4° C. at a final concentration of 160 nM to 0.011 nM. At the end of the incubation, cells are washed and incubated with anti-hIgG-PE detection antibody for 45 min at 4° C. After washing the unbound detection antibodies, the cells are analyzed by FACS. MFI values were entered into Graphpad Prisim software and analyzed using the one site binding (hyperbola) equation of Y=Bmax*X/(Kd+X) to generate Ha22-2(2,4)6.1vcMMAE saturation curves shown also in FIGS. 6-8 respectively. Bmax is the MFI value at maximal binding of Ha22-2(2,4)6.1vcMMAE to 191P4D12; Kd is the Ha22-2(2,4)6.1vcMMAE binding affinity which is the concentration of Ha22-2(2,4)6.1vcMMAE required to reach half-maximal binding.

The target in assay [3] is T3, Cynomolgus 191P4D12 (on PC3 cells) (cynomolgus monkey, UniProt A0A2K5WES1 32-510).
T3 construct: also called PC3-Cynomolgus-191P4D12; Cyno ortholog
T3 sequence: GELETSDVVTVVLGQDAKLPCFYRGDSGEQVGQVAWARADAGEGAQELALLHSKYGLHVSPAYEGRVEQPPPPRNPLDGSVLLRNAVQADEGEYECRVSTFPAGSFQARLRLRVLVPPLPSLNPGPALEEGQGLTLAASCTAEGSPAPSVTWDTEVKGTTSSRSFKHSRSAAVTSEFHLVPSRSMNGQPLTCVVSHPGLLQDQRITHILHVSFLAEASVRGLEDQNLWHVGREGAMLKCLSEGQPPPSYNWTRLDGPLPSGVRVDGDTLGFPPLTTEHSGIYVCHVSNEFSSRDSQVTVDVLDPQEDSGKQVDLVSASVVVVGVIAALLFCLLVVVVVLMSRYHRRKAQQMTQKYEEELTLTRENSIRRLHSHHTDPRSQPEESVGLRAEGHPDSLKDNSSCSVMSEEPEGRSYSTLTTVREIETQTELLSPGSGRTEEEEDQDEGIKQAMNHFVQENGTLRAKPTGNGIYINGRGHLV
Briefly: FACS saturation binding on PC3-Cynomolgus-191P4D12 cells. How it is done: as §1

Assay [4] deals with T4, 191P4D12 (human, wild type, on cells) (human, UniProt Q96NY8 32-510).
T4 construct: 510 amino acid ORF expressed on PC3, RAT/Rat1(E) cells and present in cancer cell lines and tumor specimens; also called human 191P4D12; wild-type 191P4D12
T4 sequence: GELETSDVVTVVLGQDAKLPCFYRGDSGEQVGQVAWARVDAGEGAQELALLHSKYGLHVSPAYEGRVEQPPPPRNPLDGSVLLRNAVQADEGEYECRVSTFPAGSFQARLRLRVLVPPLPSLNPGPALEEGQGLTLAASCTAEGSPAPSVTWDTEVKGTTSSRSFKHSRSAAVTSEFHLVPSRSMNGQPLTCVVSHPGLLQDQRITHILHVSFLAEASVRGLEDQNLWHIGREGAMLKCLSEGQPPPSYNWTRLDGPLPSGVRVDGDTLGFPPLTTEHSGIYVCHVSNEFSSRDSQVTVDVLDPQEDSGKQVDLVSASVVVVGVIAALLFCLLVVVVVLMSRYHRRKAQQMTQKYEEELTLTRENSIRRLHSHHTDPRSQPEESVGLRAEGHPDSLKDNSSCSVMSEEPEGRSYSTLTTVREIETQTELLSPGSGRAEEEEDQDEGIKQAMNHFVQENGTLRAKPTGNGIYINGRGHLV
Briefly: FACS saturation binding on PC3-human-191P4D12 cells. Here is the method: as §1

B1: Ha22-2(2,4)6.1vcMMAE (antibody, human IgG1, kappa, V domains shown)
VH: EVQLVESGGGLVQPGGSLRLSCAASGFTFSSYNMNWVRQAPGKGLEWVSYISSSSSTIYYADSVKGRFTISRDNAKNSLSLQMNSLRDEDTAVYYCARAYYYGMDVWGQGTTVTVSS
VL: DIQMTQSPSSVSASVGDRVTITCRASQGISGWLAWYQQKPGKAPKFLIYAASTLQSGVPSRFSGSGSGTDFTLTISSLQPEDFATYYCQQANSFPPTFGGGTKVEIKR
modifications: vcMMAE (Val-Cit linker, MMAE) on cysteine thiols after partial TCEP reduction, positions not given; p about 3.8 drugs per antibody
notes: also called Ha22-2(2,4)6.1ADC
What is called Kd is the free concentration of one partner at which half of the binding sites on the other are occupied at equilibrium, for simple one-to-one binding. The term koff denotes the rate constant with which the complex falls apart. What is called kon is a measure of how fast the partners come together. For B1, the Kd is 11 nM in assay [1], 1.6 nM in assay [2], 0.34 nM in assay [3] and 0.69 nM in assay [4]. Also, the off-rate constant (koff) in assay [1] stood at 0.0052 s⁻¹. Moreover, the kon in assay [1] is 450000 M⁻¹ s⁻¹.
